Values of other authors, collected in patent US20230331803A1, “CO-AGONISTS OF THE GLP-1 AND AMYLIN RECEPTORS” (priority 2020, published 2023).
Read-outs that look alike come from different tables or passages of the source.

Tests used:
[1] = endogenous hormone; cited from earlier work
[2] = measured in humans (Meier et al., Diabetes, 2004); cited from earlier work

Substance: human amylin (KCNTATCATQRLANFLVHSSNNFGAILSSTNVGSNTY; Islet amyloid polypeptide; UniProt P10997 34-70, looked up) [37-amino acid long polypeptide hormone co-secreted with insulin from the pancreatic beta-cell]
- half-life [1]: 15 to 20 min
- half-life [2]: 15 to 20 min
